B1: F1*; the commonest letter at each place (parent)
chain: GAGACCGCAACTGAAAAGTTGTTATCACTTGTCGTAAGACACTTTGGATGGGTTGAAGTTCTGCACGTAGAAGCAAAAGGC

Variants of: B1
Assay: fraction ligated after 30 min (ligated reads / total reads); higher = more ligase activity
Details: with F1*sub RNA substrate (template-directed ligation), 42 °C
In short: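 Oligo-pool templates underwent PCR amplification, T7 transcription and gel purification to yield ribozyme variants. Gel-separated ligated and unligated bands were converted to complementary DNA with barcoded primers and sequenced on a MiSeq, keeping core bases of quality ≥20. The ratio of ligated reads to total reads gave the fraction ligated for every variant.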

In order of falling fraction ligated:
1. GAGACCGCAACTGAAAAGTTGTTATCACTTGTCGTAAGGCACATTGGATGGGTTGAAGTTCTGCACGTAGAAGCAAAAGGC [A39G T43A]  0.838
2. GAGACCGCAACTGAAAAGTTGTTATCACTTGTCGTAAGAAACTTTGGATGGGTTGAAGTTCTGCACGTAGAAGCAAAAGGC [C40A]  0.833
3. GAGACCGCAACTGAAAAGTTGTTATCACTTGTCGTAAGTCACTTTGGATGGGTTGAAGTTCTGCACGTAGAAGCAAAAGGC [A39T]  0.833
4. GAGACCGCAACTGAAAAGTTGTTATCACTTGTCGTAAGTCACATTGGATGGGTTGAAGTTCTGCACGTAGAAGCAAAAGGC [A39T T43A]  0.829
5. GAGACCGCAACTGAAAAGTTGTTATCACTTGTCGTAAGTCACTGTGGATGGGTTGAAGTTCTGCACGTAGAAGCAAAAGGC [A39T T44G]  0.827
6. GAGACCGCAACTGAAAAGTTGTTATCACTTGTCGTAAGTCACTCTGGATGGGTTGAAGTTCTGCACGTAGAAGCAAAAGGC [A39T T44C]  0.821
7. GAGACCGCAACTGAAAAGTTGTTATCACTTGTCGTAAGGCACGTTGGATGGGTTGAAGTTCTGCACGTAGAAGCAAAAGGC [A39G T43G]  0.815
8. GAGACCGCAACTGAAAAGTTGTTATCACTTGTCGTAAGGCACCTTGGATGGGTTGAAGTTCTGCACGTAGAAGCAAAAGGC [A39G T43C]  0.814
9. GAGACCGCAACTGAAAAGTTGTTATCACTTGTCGTAAGAAACTTTGGATGGGTTGTAGTTCTGCACGTAGAAGCAAAAGGC [C40A A56T]  0.812
10. GAGACCGCAACTGAAAAGTTGTTATCACTTGTCGTAAGTCACTTTGGATGGGTTGTAGTTCTGCACGTAGAAGCAAAAGGC [A39T A56T]  0.807
11. GAGACCGCAACTGAAAAGTTGTTATCACTTGTCGTAAGGCACTTTGGAAGGGTTGAAGTTCTGCACGTAGAAGCAAAAGGC [A39G T49A]  0.805
12. GAGACCGCAACTGAAAAGTTGTTATCACTTGTCGTAAGTCACCTTGGATGGGTTGAAGTTCTGCACGTAGAAGCAAAAGGC [A39T T43C]  0.795
13. GAGACCGCAACTGAAAAGTTGTTATCACTTGTCGTAAGGCACTTTGGAGGGGTTGAAGTTCTGCACGTAGAAGCAAAAGGC [A39G T49G]  0.791
14. GAGACCGCAACTGAAAAGTTGTTATCACTTGTCGTAAGTCACTATGGATGGGTTGAAGTTCTGCACGTAGAAGCAAAAGGC [A39T T44A]  0.79
15. GAGACCGCAACTGAAAAGTTGTTATCACTTGTCGTAAGAAACTTTGGATGGGTTGGAGTTCTGCACGTAGAAGCAAAAGGC [C40A A56G]  0.785
16. GAGACCGCAACTGAAAAGTTGTTATCACTTGTCGTAAGTCCCTTTGGATGGGTTGAAGTTCTGCACGTAGAAGCAAAAGGC [A39T A41C]  0.782
17. GAGACCGCAACTGAAAAGTTGTTATCACTTGTCGTAAGTCACTTTGGATGGGTTGGAGTTCTGCACGTAGAAGCAAAAGGC [A39T A56G]  0.78
18. GAGACCGCAACTGAAAAGTTGTTATCACTTGTCGTAAGTCACTTTGGGTGGGTTGAAGTTCTGCACGTAGAAGCAAAAGGC [A39T A48G]  0.778
19. GAGACCGCAACTGAAAAGTTGTTATCACTTGTCGTAAGTCTCTTTGGATGGGTTGAAGTTCTGCACGTAGAAGCAAAAGGC [A39T A41T]  0.775
20. GAGACCGCAACTGAAAAGTTGTTATCACTTGTCGTAAGTCACGTTGGATGGGTTGAAGTTCTGCACGTAGAAGCAAAAGGC [A39T T43G]  0.772
21. GAGACCGCAACTGAAAAGTTGTTATCACTTGTCGTAAGTCGCTTTGGATGGGTTGAAGTTCTGCACGTAGAAGCAAAAGGC [A39T A41G]  0.769
22. GAGACCGCAACTGAAAAGTTGTTATCACTTGTCGTAAGTCACTTTGGATGGGTTGCAGTTCTGCACGTAGAAGCAAAAGGC [A39T A56C]  0.761
23. GAGACCGCAACTGAAAAGTTGTTATCACTTGTCGTAAGTCACTTTGAATGGGTTGAAGTTCTGCACGTAGAAGCAAAAGGC [A39T G47A]  0.759
24. GAGACCGCAACTGAAAAGTTGTTATCACTTGTCGTAAGTCACTTAGGATGGGTTGAAGTTCTGCACGTAGAAGCAAAAGGC [A39T T45A]  0.744
25. GAGACCGCAACTGAAAAGTTGTTATCACTTGTCGTAAGGCACTTTGGACGGGTTGAAGTTCTGCACGTAGAAGCAAAAGGC [A39G T49C]  0.714
26. GAGACCGCAACTGAAAAGTTGTTATCACTTGTCGTAAGAAACTTTGGATGGGTTGCAGTTCTGCACGTAGAAGCAAAAGGC [C40A A56C]  0.711
27. GAGACCGCAACTGAAAAGTTGTTATCACTTGTCGTAAGTCACTTCGGATGGGTTGAAGTTCTGCACGTAGAAGCAAAAGGC [A39T T45C]  0.676
28. GAGACCGCAACTGAAAAGTTGTTATCACTTGTCGTAAGTCACTTTGGCTGGGTTGAAGTTCTGCACGTAGAAGCAAAAGGC [A39T A48C]  0.633
29. GAGACCGCAACTGAAAAGTTGTTATCACTTGTCGTAAGTCACTTTGGTTGGGTTGAAGTTCTGCACGTAGAAGCAAAAGGC [A39T A48T]  0.541
30. GAGACCGCAACTGAAAAGTTGTTATCACTTGTCGTAAGTCACTTTGGATTGGTTGAAGTTCTGCACGTAGAAGCAAAAGGC [A39T G50T]  0.413
31. GAGACCGCAACTGAAAAGTTGTTATCACTTGTCGTAAGTCACTTTGGATAGGTTGAAGTTCTGCACGTAGAAGCAAAAGGC [A39T G50A]  0.239
32. GAGACCGCAACTGAAAAGTTGTTATCACTTGTCGTAAGTCACTTTGCATGGGTTGAAGTTCTGCACGTAGAAGCAAAAGGC [A39T G47C]  0.229
33. GAGACCGCAACTGAAAAGTTGTTATCACTTGTCGTAAGTCACTTTGTATGGGTTGAAGTTCTGCACGTAGAAGCAAAAGGC [A39T G47T]  0.22
34. GAGACCGCAACTGAAAAGTTGTTATCACTTGTCGTAAGTCACTTTGGATCGGTTGAAGTTCTGCACGTAGAAGCAAAAGGC [A39T G50C]  0.0837

— the supplement of paper PMC6755084
